Experimental data reported in US20130230504A1 (CHILDREN S MEDICAL CENTER, published 2013).
Blank lines part the entries; values can stand above or below the molecule they belong to.

How the values were obtained:
[1] = target: VEGF165 receptor (VEGF165R) (human) (UniProt O14786); experiment: competition with 125I-VEGF165 (5 ng/ml) on MDA-MB-231 cells (VEGF165R only), increasing GST-Ex 7+8, gamma counting
[2] = target: VEGF165 receptor (VEGF165R) (human) (UniProt O14786); experiment: competition with 125I-VEGF165 (5 ng/ml) on HUVEC (KDR/Flk-1 and VEGF165R), increasing GST-Ex 7+8, gamma counting
[3] = target: VEGF165 receptor (VEGF165R) (human) (UniProt O14786); experiment: competition with 125I-VEGF165 (5 ng/ml) on HUVEC at 2 ug/ml GST-Ex 7, gamma counting
KDR/Flk-1 = KDR/Flk-1 (human, UniProt P35968 20-1356); experiment: cell-based or functional assay
Sequence of KDR/Flk-1 (P35968 20-1356): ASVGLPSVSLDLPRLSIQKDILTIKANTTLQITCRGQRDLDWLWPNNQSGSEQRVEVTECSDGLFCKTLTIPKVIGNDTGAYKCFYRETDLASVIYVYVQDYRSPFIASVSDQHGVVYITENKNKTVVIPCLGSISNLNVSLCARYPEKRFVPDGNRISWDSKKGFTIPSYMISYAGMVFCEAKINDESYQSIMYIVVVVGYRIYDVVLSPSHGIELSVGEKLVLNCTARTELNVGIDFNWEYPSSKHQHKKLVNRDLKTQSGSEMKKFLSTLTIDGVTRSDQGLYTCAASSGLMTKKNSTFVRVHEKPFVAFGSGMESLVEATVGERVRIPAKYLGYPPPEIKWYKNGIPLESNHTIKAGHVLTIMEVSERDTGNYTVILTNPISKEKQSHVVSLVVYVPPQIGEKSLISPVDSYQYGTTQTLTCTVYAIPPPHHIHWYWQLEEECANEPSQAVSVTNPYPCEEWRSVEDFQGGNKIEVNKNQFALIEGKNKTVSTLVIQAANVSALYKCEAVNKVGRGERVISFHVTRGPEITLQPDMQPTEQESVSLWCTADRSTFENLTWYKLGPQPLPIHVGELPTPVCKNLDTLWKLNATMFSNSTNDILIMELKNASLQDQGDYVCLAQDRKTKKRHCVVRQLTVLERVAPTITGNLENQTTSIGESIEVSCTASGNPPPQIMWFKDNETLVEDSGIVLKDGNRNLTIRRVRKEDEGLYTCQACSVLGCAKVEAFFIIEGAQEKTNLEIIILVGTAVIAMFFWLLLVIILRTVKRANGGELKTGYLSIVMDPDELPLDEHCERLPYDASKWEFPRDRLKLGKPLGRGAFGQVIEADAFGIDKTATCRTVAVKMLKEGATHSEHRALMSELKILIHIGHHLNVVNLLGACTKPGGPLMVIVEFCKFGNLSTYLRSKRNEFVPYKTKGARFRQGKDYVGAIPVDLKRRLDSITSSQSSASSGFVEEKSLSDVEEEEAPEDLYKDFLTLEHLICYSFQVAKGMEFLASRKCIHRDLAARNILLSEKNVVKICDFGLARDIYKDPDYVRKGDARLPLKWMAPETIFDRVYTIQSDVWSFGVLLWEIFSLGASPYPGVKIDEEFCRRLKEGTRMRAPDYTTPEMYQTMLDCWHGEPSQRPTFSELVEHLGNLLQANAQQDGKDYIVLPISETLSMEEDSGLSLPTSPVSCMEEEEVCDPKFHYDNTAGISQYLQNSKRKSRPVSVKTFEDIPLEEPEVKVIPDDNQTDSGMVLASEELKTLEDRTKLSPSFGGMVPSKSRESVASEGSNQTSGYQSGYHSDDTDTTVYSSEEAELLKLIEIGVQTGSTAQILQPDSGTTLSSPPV

Sequence of VEGF165 receptor (VEGF165R) (human) (O14786 22-923): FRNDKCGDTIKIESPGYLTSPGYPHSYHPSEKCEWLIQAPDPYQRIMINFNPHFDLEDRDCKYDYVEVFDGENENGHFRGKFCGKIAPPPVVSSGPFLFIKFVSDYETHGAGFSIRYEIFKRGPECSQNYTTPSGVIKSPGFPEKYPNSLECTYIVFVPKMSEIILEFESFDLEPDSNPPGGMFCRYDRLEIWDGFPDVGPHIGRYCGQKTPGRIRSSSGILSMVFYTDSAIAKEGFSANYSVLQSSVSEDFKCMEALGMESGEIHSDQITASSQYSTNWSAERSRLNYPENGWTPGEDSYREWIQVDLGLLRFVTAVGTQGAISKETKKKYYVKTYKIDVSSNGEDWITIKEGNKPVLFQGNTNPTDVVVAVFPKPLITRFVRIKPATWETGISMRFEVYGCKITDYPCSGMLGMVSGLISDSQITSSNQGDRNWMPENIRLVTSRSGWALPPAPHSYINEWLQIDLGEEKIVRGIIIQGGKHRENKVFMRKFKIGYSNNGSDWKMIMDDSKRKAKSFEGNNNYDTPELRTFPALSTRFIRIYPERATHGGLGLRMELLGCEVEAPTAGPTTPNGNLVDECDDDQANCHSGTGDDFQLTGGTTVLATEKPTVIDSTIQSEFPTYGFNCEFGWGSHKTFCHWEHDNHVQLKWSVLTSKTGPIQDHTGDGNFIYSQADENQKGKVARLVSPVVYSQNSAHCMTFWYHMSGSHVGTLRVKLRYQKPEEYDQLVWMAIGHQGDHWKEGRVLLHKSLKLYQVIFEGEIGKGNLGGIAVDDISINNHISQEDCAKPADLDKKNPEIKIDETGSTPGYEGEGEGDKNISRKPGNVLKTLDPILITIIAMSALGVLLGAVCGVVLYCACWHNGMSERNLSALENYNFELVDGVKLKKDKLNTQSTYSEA

- percent inhibition of 125I-VEGF165 binding [1]: 97 to 98%
- percent inhibition of 125I-VEGF165 binding [2]: 85 to 95%
Molecule: GST-Ex 7+8 fusion protein (GST fused to the VEGF165 exons 7- and 8-encoded peptide) (from UniProt P15692 187-191)

- percent inhibition of 125I-VEGF165 binding [3]: 80%
Molecule: GST-Ex 7 fusion protein (GST fused to the 44 amino acids encoded by VEGF exon 7 plus the first cysteine of exon 8) (from UniProt P08515 1-218)

- fold decrease in VEGF121-mediated HUVEC proliferation with 15 ug/ml GST-Ex 7+8 (KDR/Flk-1): ~2 fold
B1: Human recombinant VEGF121 (ligand, UniProt P15692-9 27-147, looked up)
chain: APMAEGGGQNHHEVVKFMDVYQRSYCHPIETLVDIFQEYPDEIEYIFKPSCVPLMRCGGCCNDEGLECVPTEESNITMQIMRIKPHQGQHIGEMSFLQHNKCECRPKKDRARQEKCDKPRR
modifications: radioiodinated (125I, IODO-BEADS) in the cross-linking assays
